Source: the supplement of paper PMC10567573

B1: GAGE1 (parent)
chain: QPPEMIGPMRPEQFSDEVEPATPE

Variants of: B1
Assay: protein stability index of a GFP-peptide fusion (GPS, HEK-293T) (PSI 1-6); higher = more stable
Conditions: c terminus: a fixed tail appended
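Also: lentivirally expressed fusions sorted by FACS into six bins by GFP to DsRed ratio, PSI derived from sequencing read proportions per bin multiplied by bin number.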

First: QPPEMIGPMRPENFSDEVEPATPE [Q13N]
Second: QPPEMIGPMRPEDFSDEVEPATPE [Q13D]
The protein stability index of the first is higher: 5.33 for the first, 4.11 for the second.

Compared with QPPEMIGPMRPEQFVDEVEPATPE [S15V], QPPEMIGPMRPEQFIDEVEPATPE [S15I] is higher in protein stability index: 4.73 for the first, 5.08 for the second.

Going from QPPEMIGPMRPEQFFDEVEPATPE [S15F] to QPPEMIGPMRPEQFADEVEPATPE [S15A], the protein stability index rises from 3.19 to 4.71.

Going from QPPEMIGPMRPEQFPDEVEPATPE [S15P] to QPPEMIGPMRPEQFNDEVEPATPE [S15N], the protein stability index rises from 4.67 to 5.32.

Compared with QPPEMIGPMRPEQFMDEVEPATPE [S15M], QPPEMIGPMRPEQFDDEVEPATPE [S15D] is higher in protein stability index: 4.22 for the first, 4.57 for the second.

First: QPPEMIGPMRPEQFKDEVEPATPE [S15K]
Second: QPPEMIGPMRPEQFWDEVEPATPE [S15W]
The protein stability index of the first is higher: 5.72 for the first, 4.8 for the second.

Going from QPPEMIGPMRPEQFLDEVEPATPE [S15L] to QPPEMIGPMRPEQFCDEVEPATPE [S15C], the protein stability index rises from 4.79 to 5.31.

First: QPPEMIGPMRPEQFHDEVEPATPE [S15H]
Second: QPPEMIGPMRPEQFRDEVEPATPE [S15R]
The protein stability index of the first is lower: 4.75 for the first, 5.37 for the second.

First: QPPEMIGPMRPEQFGDEVEPATPE [S15G]
Second: QPPEMIGPMRPEQFTDEVEPATPE [S15T]
The protein stability index of the first is lower: 4.48 for the first, 5.27 for the second.

First: QPPEMIGPMRPEQFEDEVEPATPE [S15E]
Second: QPPEMIGQMRPEQFSDEVEPATPE [P8Q]
The protein stability index of the first is lower: 5.49 for the first, 5.76 for the second.

Compared with QPPEMIGSMRPEQFSDEVEPATPE [P8S], QPPEMIGKMRPEQFSDEVEPATPE [P8K] is lower in protein stability index: 5.54 for the first, 5.46 for the second.

Compared with QPPEMIGEMRPEQFSDEVEPATPE [P8E], QPPEMIGIMRPEQFSDEVEPATPE [P8I] is lower in protein stability index: 5.86 for the first, 5.09 for the second.

Compared with QPPEMIGCMRPEQFSDEVEPATPE [P8C], QPPEMIGRMRPEQFSDEVEPATPE [P8R] is lower in protein stability index: 5.48 for the first, 5.24 for the second.

Compared with QPPEMIGYMRPEQFSDEVEPATPE [P8Y], QPPEMIGFMRPEQFSDEVEPATPE [P8F] is lower in protein stability index: 4.92 for the first, 4.9 for the second.

First: QPPEMIGLMRPEQFSDEVEPATPE [P8L]
Second: QPPEMIGAMRPEQFSDEVEPATPE [P8A]
The protein stability index of the first is higher: 5.52 for the first, 5.5 for the second.

Compared with QPPEMIGGMRPEQFSDEVEPATPE [P8G], QPPEMIGTMRPEQFSDEVEPATPE [P8T] is higher in protein stability index: 5.45 for the first, 5.62 for the second.

First: QPPEMIGVMRPEQFSDEVEPATPE [P8V]
Second: QPPEMIGHMRPEQFSDEVEPATPE [P8H]
The protein stability index of the first is higher: 5.67 for the first, 5.47 for the second.

Compared with QPPEMIGNMRPEQFSDEVEPATPE [P8N], QPPEMIGDMRPEQFSDEVEPATPE [P8D] is lower in protein stability index: 5.91 for the first, 5.1 for the second.

Compared with QPPEMIGMMRPEQFSDEVEPATPE [P8M], QPPEMIGPMRPGQFSDEVEPATPE [E12G] is higher in protein stability index: 4.75 for the first, 5.01 for the second.

Compared with QPPEMIGPMRPSQFSDEVEPATPE [E12S], QPPEMIGPMRPAQFSDEVEPATPE [E12A] is lower in protein stability index: 5.5 for the first, 5.33 for the second.

Compared with QPPEMIGPMRPTQFSDEVEPATPE [E12T], QPPEMIGPMRPKQFSDEVEPATPE [E12K] is lower in protein stability index: 5.58 for the first, 5.15 for the second.

Compared with QPPEMIGPMRPRQFSDEVEPATPE [E12R], QPPEMIGPMRPCQFSDEVEPATPE [E12C] is lower in protein stability index: 5.71 for the first, 5.27 for the second.

First: QPPEMIGPMRPIQFSDEVEPATPE [E12I]
Second: QPPEMIGPMRPWQFSDEVEPATPE [E12W]
The protein stability index of the first is higher: 5.69 for the first, 4.88 for the second.

Compared with QPPEMIGPMRPHQFSDEVEPATPE [E12H], QPPEMIGPMRPDQFSDEVEPATPE [E12D] is lower in protein stability index: 5.21 for the first, 4.57 for the second.

Going from QPPEMIGPMRPFQFSDEVEPATPE [E12F] to QPPEMIGPMRPPQFSDEVEPATPE [E12P], the protein stability index falls from 5.87 to 5.73.

Compared with QPPEMIGPMRPLQFSDEVEPATPE [E12L], QPPEMIGPMRPMQFSDEVEPATPE [E12M] is lower in protein stability index: 5.8 for the first, 5.15 for the second.

Going from QPPEMIGPMRPNQFSDEVEPATPE [E12N] to QPPEMIGPMRPQQFSDEVEPATPE [E12Q], the protein stability index rises from 5.46 to 5.57.

Compared with QPPEMIGPMRPYQFSDEVEPATPE [E12Y], QPPEMIGPMRPVQFSDEVEPATPE [E12V] is higher in protein stability index: 5.51 for the first, 5.83 for the second.

Going from QPPEMIAPMRPEQFSDEVEPATPE [G7A] to QPPEMIMPMRPEQFSDEVEPATPE [G7M], the protein stability index rises from 5.38 to 5.55.

First: QPPEMILPMRPEQFSDEVEPATPE [G7L]
Second: QPPEMIDPMRPEQFSDEVEPATPE [G7D]
The protein stability index of the first is higher: 5.44 for the first, 5.22 for the second.

Going from QPPEMIVPMRPEQFSDEVEPATPE [G7V] to QPPEMIQPMRPEQFSDEVEPATPE [G7Q], the protein stability index rises from 5.68 to 5.69.

Going from QPPEMINPMRPEQFSDEVEPATPE [G7N] to QPPEMIHPMRPEQFSDEVEPATPE [G7H], the protein stability index falls from 5.91 to 5.48.

Going from QPPEMIWPMRPEQFSDEVEPATPE [G7W] to QPPEMICPMRPEQFSDEVEPATPE [G7C], the protein stability index falls from 5.73 to 5.63.

Going from QPPEMIEPMRPEQFSDEVEPATPE [G7E] to QPPEMIPPMRPEQFSDEVEPATPE [G7P], the protein stability index falls from 5.69 to 5.56.

First: QPPEMIIPMRPEQFSDEVEPATPE [G7I]
Second: QPPEMISPMRPEQFSDEVEPATPE [G7S]
The protein stability index of the first is lower: 5.14 for the first, 5.68 for the second.

Compared with QPPEMIKPMRPEQFSDEVEPATPE [G7K], QPPEMITPMRPEQFSDEVEPATPE [G7T] is lower in protein stability index: 5.54 for the first, 5.46 for the second.

Going from QPPEMIFPMRPEQFSDEVEPATPE [G7F] to QPPEMIYPMRPEQFSDEVEPATPE [G7Y], the protein stability index falls from 5.83 to 5.76.

First: QPPEMIRPMRPEQFSDEVEPATPE [G7R]
Second: QPPEMIGPQRPEQFSDEVEPATPE [M9Q]
The protein stability index of the first is higher: 5.68 for the first, 5.49 for the second.

First: QPPEMIGPGRPEQFSDEVEPATPE [M9G]
Second: QPPEMIGPARPEQFSDEVEPATPE [M9A]
The protein stability index of the first is higher: 5.5 for the first, 5.28 for the second.

Going from QPPEMIGPPRPEQFSDEVEPATPE [M9P] to QPPEMIGPNRPEQFSDEVEPATPE [M9N], the protein stability index falls from 5.57 to 4.68.

Going from QPPEMIGPWRPEQFSDEVEPATPE [M9W] to QPPEMIGPRRPEQFSDEVEPATPE [M9R], the protein stability index falls from 5.9 to 5.86.

First: QPPEMIGPFRPEQFSDEVEPATPE [M9F]
Second: QPPEMIGPDRPEQFSDEVEPATPE [M9D]
The protein stability index of the first is lower: 5.54 for the first, 5.82 for the second.

First: QPPEMIGPIRPEQFSDEVEPATPE [M9I]
Second: QPPEMIGPKRPEQFSDEVEPATPE [M9K]
The protein stability index of the first is lower: 5.13 for the first, 5.81 for the second.

First: QPPEMIGPTRPEQFSDEVEPATPE [M9T]
Second: QPPEMIGPYRPEQFSDEVEPATPE [M9Y]
The protein stability index of the first is higher: 5.68 for the first, 5.5 for the second.

Going from QPPEMIGPVRPEQFSDEVEPATPE [M9V] to QPPEMIGPSRPEQFSDEVEPATPE [M9S], the protein stability index falls from 5.97 to 5.72.

Compared with QPPEMIGPERPEQFSDEVEPATPE [M9E], QPPEMIGPHRPEQFSDEVEPATPE [M9H] is higher in protein stability index: 5.62 for the first, 5.9 for the second.

Going from QPPEMIGPLRPEQFSDEVEPATPE [M9L] to QPPEMIGPCRPEQFSDEVEPATPE [M9C], the protein stability index rises from 5.31 to 5.7.
